Data published in the supplement of paper PMC9170038.

Test system: MS2 coat protein
Assay: apparent KD of MS2 coat protein; higher = weaker reporter binding
Conditions: Eterna round: R107
Description: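 RNA-MaP round R107: designed RNA switches with theophylline, tryptophan, arginine or FMN aptamers are transcribed on-chip within common flanks. They are titrated with SNAP-549-labelled MS2 coat protein in RNA-MaP buffer (100 mM Tris pH 7.5, 80 mM KCl, 4 mM MgCl2), without ligand or with the indicated ligand. Median apparent KD per design.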

[1] = input ligand: theophylline 20 uM
[2] = input ligand: theophylline 2 mM
[3] = input ligand: tryptophan 2.4 mM

Sequence | apparent KD of MS2 coat protein (input ligand: arginine 13.2 mM) [nM] | apparent KD of MS2 coat protein (input ligand: none) [nM] | apparent KD of MS2 coat protein [1] [nM] | apparent KD of MS2 coat protein [2] [nM] | apparent KD of MS2 coat protein [3] [nM]
ACCUGUACGAAAAGUGCAGGACACGGAAUACGAGGACCGGUACGGCCGCCACUCGGAAUAACCUGAGGAUCACCCUGGUACCGUG [TrypAS 10 #AlternativeMS2 #Zipper #StaticStem] | 25.8 | 18.8 | 27.5 | 26.7 | 19.2
ACCUGUACGAAAAGUGCAGGACACGGAUAACGAGGACCGGUACGGCCGCCACUCGGAAUAACCUGAGGAUCACCCUGGUACCGUG [TrypAS 8 #AlternativeMS2 #Zipper #StaticStem] | 25.8 | 18.7 | 24 | 23.2 | 19
ACCUUACAUGAGGAUCACCCAUGUCGUGAUACCAGAAACCACGUAUUCCCUUGGCAGCACACCCGUGAUGAGAUUGUCGGUUUUG [theeternabot_sameState_MS2_Theo_A_43] | 42.2 |  | 86.3 |  | 49.2
ACGAACGAUAGUGAUACCAGACGAACAUGAGGAUCACCCAUGUUAUACACAUGGUUUAUUGUCCCUUGGCAGCACUUUAAGUUCG [JR_ExcTheophyB_Sub006] | 80.1 |  | 139 |  | 146
ACGAACGAUAGUGAUACCAGACGUACAUGAGGAUCACCCAUGUUAUACACAUGGUUUAUUGUCCCUUGGCAGCACGAUAAGUUCG [JR_ExcTheophyB_Sub004] | 109 |  | 263 |  | 282
ACGACGCAUAGUGAUACCAGUACAACAUGAGGAUCACCCAUGUCACAUAUGUUGUAAUAGUGCCCUUGGCAGCACUAUGCGUCAG [SSTheo B #3] | 94.4 |  | 106 |  | 125
ACGACGCAUAGUGAUACCAGUAGAACAUGAGGAUCACCCAUGUCUGUGGCGCUCCGCCUCUGCCCUUGGCAGCACUAUGCGUCAG [SSTheo B #10] | 11.9 |  | 17 |  | 11.4
ACGAUAGGACACGAGGAUCACCCGUGUGAUACCAGCCUGGAAACAGGCCCUUGGCAGCACAAAUACUCCAAUAACCUAUCGAAUA [TheoAX 10 #MicroSwitchBubble #AlternativeMS2] | 56.5 | 96.3 | 183 | 569 | 106
ACGAUAGGGCAUGAGGAUCACCCAUGUGAUACCAGCCUGGAAACAGGCCCUUGGCAGCAUUAAUACUCCAAUAACCUAUCGAAUA [TheoAX 17 #MicroSwitchBubble #AlternativeMS2] | 91.5 | 129 | 184 | 864 | 111
ACGAUGCGACAUGAGGAUCACCCAUGUGAUACCAGCCUGGAAACAGGCCCUUGGCAGCACAAAUACUCCAGAAACGCAUCGAAUA [MAT - Exclusion Theophlline A - Mod of Eli - D3] | 96.3 |  | 356 |  | 348
ACGCGCAGCAGAAGGAGCGUCUUAAUUCUACAUGAGGAUCACCCAUGUUUACAUUGGAUAUGACAGGUAGGUCGCUGGUGUGCGA [#06 Same State - Arginine B] | 15.9 | 18 | 18.1 | 19.6 | 15.6
ACGCUGAUUGAUUACAAUCAGCGAAAAGAUACCAGUGGGUAAUCCCACCCUUGGCAGCUUAAACAUGAGGAUCACCCAUGUGGUA [TheoAS 14 #MS2Right #BothOrNeither #AlternativeMS2] | 79.9 |  | 146 |  | 126
ACGUAAUGCAGAAGGAGCGUCUUAUGUAUACAUGAGGAUCACCCAUGUAAUAUGUGGUUGAGACAGGUAGGUCGCUGAAGUACGA [JR_SSArginiB_Sub009] | 46.9 | 86 | 94.1 | 78.4 | 58.7
ACUAGUUGUGCAGAUACCAGACAUGAGGAUCACCCAUGUUUGGGUUGUUCGCAACUUCCUGUCCCUUGGCAGCUGUACAUCUAGA [Omei Theo B Exc v5] | 18.9 |  | 46.9 |  | 24.3
AGAAUAUAGUCGGCCGCCACUCUUCAUACAUGAGGAUCACCCAUGUUUAAUUCUUGGAUAUUCUUGAGGACCGGGACAUAGGCAU [JR_SSTryptoB_Sub019] | 18 |  | 23.1 | 21.6 | 
AGACAUGAGGAUCACCCAUGUAGCAUGGAUACCAGAUGUAGAUUAGUCCCUUGGCAGCUGUGGUAAAGUGAUGCAUUGCUCCUAG [Exclusion - Theophylline A (Freestyle 3)] | 35.2 |  | 55.3 |  | 38.8
AGACAUGUAAGAUAAAUGACUUAUACAGAUACCAGACUGUCUAAUGUCCCUUGGCAGCUGCAUAACAUGAGGAUCACCCAUGUAA [JR_ExcTheophyA_Sub010] | 22.3 |  | 24.2 |  | 26.9
AGACCCUUCACGGCCGCCACUCAUUUUAAGUAGAGAGAGUACAUGAGGAUCACCCAUGUGAGAGAGAGGACCGGGUGAGAUAUUA [ss-trypB-0] | 13.9 |  | 21.4 | 21.3 | 
AGACUGUCUUCGGACAGUCCGGACAGCCCGCGAGGACCGGUACGGCCGCCACUCGCACGAGGAUCACCCGUGUGAGGCUGUCCGA [Omei Tryp A Exc A v2] | 9.87 | 13.4 | 17.2 | 16.4 | 14.5
AGCAACAAGUCGGCCGCCACUCAUUUAACAUGAGGAUCACCCAUGUGAAUAACAUGGUUGUAAUAGAGGACCGGGACAGUUGCAU [JR_SSTryptoB_Sub016] | 205 |  | 283 | 401 | 
AGCACUGUGACGGCCGCCACUAUAUAUAGGGUGGUCAGGUUCAUAAUACAUGAGGAUCACCCAUGUAGGACCGGGUCUCAGUGCA [Omei Trp Exc B A v4] | 14.5 | 12 | 14.9 | 10.9 | 14
AGCACUGUGGCGGCCGCCACUACAUAUAGGGUGGUCAGGCCCAUAAUACAUGAGGAUCACCCAUGUAGGACCGGGCCUCAGUGCA [Omei Trp Exc B A v13] | 12.7 |  | 20 | 16.5 | 
AGCCACUCGAACAUGGGUGACGAGUGGCAACGAGGACCGGUACGGCCGCCACUCGAAUAAACAUGAGGAUCACCCAUGUACAAAU [T''-M'-T'-T-MS2 - Design 9] | 33.1 |  | 146 | 355 | 
AGCGACAUGCAUGAUACCAGCUACAUGAGGAUCACCCAUGUACGUCAGUAAUGACUGUGUAGCCCUUGGCAGCAUAGAGCAUGUU [Exclusion - Theophylline B (Freestyle 15)] | 15.7 |  | 29.3 |  | 16.5
AGCGACAUGCGUGAUACCAGCUACAUGAGGAUCACCCAUGUACGUCAGAAAUGACUGUGUAGCCCUUGGCAGCAUAGUGCAUGUC [Exclusion - Theophylline B (Freestyle 20)] | 34.6 |  | 54.2 |  | 34.8
